Data as given in publication PMC5288196, “Native and engineered tropism of vectors derived from a rare species D adenovirus serotype 43” (Oncotarget, 2016).

Biological target: T1, adenovirus serotype 5 virions (human adenovirus serotype 5)
T1 chain: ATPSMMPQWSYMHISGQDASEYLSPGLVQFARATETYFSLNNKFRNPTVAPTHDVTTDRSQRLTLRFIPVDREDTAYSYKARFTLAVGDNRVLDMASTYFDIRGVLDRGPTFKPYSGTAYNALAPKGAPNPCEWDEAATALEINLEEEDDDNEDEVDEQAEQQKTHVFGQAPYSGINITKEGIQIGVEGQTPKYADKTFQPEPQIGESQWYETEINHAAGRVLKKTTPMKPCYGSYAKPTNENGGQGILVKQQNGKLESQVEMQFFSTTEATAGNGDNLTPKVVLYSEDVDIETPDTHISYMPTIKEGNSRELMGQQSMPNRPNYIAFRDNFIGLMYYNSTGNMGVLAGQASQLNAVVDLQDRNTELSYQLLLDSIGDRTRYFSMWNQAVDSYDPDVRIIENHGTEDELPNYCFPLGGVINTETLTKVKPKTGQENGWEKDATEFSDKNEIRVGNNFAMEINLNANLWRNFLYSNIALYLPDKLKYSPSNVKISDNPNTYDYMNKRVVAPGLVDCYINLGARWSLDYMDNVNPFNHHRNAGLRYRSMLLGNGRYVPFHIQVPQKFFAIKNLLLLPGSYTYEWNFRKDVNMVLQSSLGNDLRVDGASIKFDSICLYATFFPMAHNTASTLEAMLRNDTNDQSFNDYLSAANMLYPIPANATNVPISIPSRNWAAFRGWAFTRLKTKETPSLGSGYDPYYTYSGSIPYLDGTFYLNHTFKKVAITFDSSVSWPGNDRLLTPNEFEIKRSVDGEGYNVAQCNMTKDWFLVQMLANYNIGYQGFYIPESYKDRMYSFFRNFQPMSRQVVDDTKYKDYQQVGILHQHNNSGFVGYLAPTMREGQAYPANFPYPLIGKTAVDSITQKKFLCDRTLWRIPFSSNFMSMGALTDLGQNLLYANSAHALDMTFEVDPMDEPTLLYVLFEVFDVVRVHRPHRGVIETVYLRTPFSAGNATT
Assay: SPR; Ad virions immobilised on the chip, probed with soluble FX in serial two-fold dilutions from 0.4 to 25 μg/ml, in duplicates
Details: both partners purified

B1: blood coagulation factor X (natural protein)
chain 1: ANSFLEEMKKGHLERECMEETCSYEEAREVFEDSDKTNEFWNKYKDGDQCETSPCQNQGKCKDGLGEYTCTCLEGFEGKNCELFTRKLCSLDNGDCDQFCHEEQNSVVCSCARGYTLADNGKACIPTGPYPCGKQTLER
chain 2: SVAQATSSSGEAPDSITWKPYDAADLDPTENPFDLLDFNQTQPERGDNNLTRIVGGQECKDGECPWQALLINEENEGFCGGTILSEFYILTAAHCLYQAKRFKVRVGDRNTEQEEGGEAVHEVEVVIKHNRFTKETYDFDIAVLRLKTPITFRMNVAPACLPERDWAESTLMTQKTGIVSGFGRTHEKGRQSTRLKMLEVPYVDRNSCKLSSSFIITQNMFCAGYDTKQEDACQGDSGGPHVTRFKDTYFVTGIVSWGEGCARKGKYGIYTKVTAFLKWIDRSMKTRGLPKAKSHAPEVITSSPLK
modifications: Zymogen FX assumed (not FXa): light chain disulfide-linked to heavy chain with the activation peptide retained. Gamma-carboxylated Gla domain, beta-hydroxy-Asp, N-/O-glycosylation; Ca2+-bound state …
  Kd: 1.5 nM
